Results reported in publication PMC5081248.

Tests used:
[1] = molecular target: Andes virus (ANDV) glycoprotein C, wild type, from virus-like particles (Andes virus strain Chi-7913); assay: sucrose gradient sedimentation
[2] = molecular target: Puumala virus (PUUV) glycoprotein C ectodomain, soluble GC (residues 659-1106 of GPC) (Puumala virus P360 strain); assay: crystal structure

| Substance | stoichiometry N [1] | stoichiometry N [2] |
| --- | --- | --- |
| Andes virus (ANDV) glycoprotein C, wild type, from virus-like particles (natural protein) | 3 |  |
| Puumala virus (PUUV) glycoprotein C ectodomain, soluble GC (residues 659-1106 of GPC) (domain or fragment) |  | 3 |
